The results in this text go back to PMC8899190, “Creating a Selective Nanobody Against 3-Nitrotyrosine Containing Proteins” (Frontiers in Chemistry, 2022).

Common to all, as to settings: both partners purified
Test [1] addresses T1, Avi-tagged, biotinylated h14-3-3ß_(nY130) (Homo sapiens, UniProt P31946, 3-nitrotyrosine at 130; biotin on the N-terminal Avi tag).
T1 construct: human 14-3-3 beta with 3-nitrotyrosine in place of Y130, from a pBAD-AVI-14-3-3-His plasmid; also called 14-3-3β_(nY130); 14-3-3_(nY130); source: E. coli BL21ai with genetic code expansion, co-expressed with GST-BirA, purified (TALON); not shown: Avi tag, N-terminal, kept
The test can be described thus: BLI; Nb-G5 (C115S) against nitrated and WT h14-3-3β; conditions of this experiment not told. On the technique in general: BLI is a label-free optical method that tracks binding on a fibre tip over time.

In test [2] the target is T2, h14-3-3ß_(nY213), His-tagged (Homo sapiens, UniProt P31946, 3-nitrotyrosine at 213).
T2 construct: human 14-3-3 beta with 3-nitrotyrosine in place of Y213 (amber suppression); also called nitrated human 14-3-3ß isoform nY213; source: E. coli BL21ai with genetic code expansion, purified (TALON)
T2 sequence (P31946 whole entry, canonical isoform): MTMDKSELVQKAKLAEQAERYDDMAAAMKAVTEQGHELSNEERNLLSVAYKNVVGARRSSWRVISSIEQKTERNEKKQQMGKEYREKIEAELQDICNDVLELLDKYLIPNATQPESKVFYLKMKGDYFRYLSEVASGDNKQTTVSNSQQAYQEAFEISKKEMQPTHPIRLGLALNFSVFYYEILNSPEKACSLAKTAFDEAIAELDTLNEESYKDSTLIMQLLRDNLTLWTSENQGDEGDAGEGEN
The test can be described thus: far-Western, overlay or dot blot; 14-3-3 targets (0.5-5 µg) dotted on PVDF, probed with Nb-G5 diluted 1:3,000 in TBS at room temperature, detected with anti-llama HRP.

Test [3] concerns the target T3, h14-3-3ß_(nY130), His-tagged (Homo sapiens, UniProt P31946, 3-nitrotyrosine at 130).
T3 construct: human 14-3-3 beta with 3-nitrotyrosine in place of Y130 (amber suppression); Held on nickel-coated ELISA plates; also called 14-3-3β nitroY130; source: E. coli BL21ai with genetic code expansion, purified (TALON)
Described as above.

Another test addresses calmodulin WT (species ; human CALM1 entry, …, UniProt P0DP23). The test can be described thus: BLI; CaM forms on sensors (kind of sensor not told), Nb-G5 in solution (300 nM in Figure 3C); 0.05% Tween; local fits.

Residue numbers refer to the chain shown, from its start. In names and notes the source's numbering stands.

T1 sequence (P31946 whole entry): as the sequence (P31946 whole entry, canonical isoform) above
T3 sequence (P31946 whole entry): as the sequence (P31946 whole entry, canonical isoform) above

B1: Nb-G5 (C115S) (VHH)
VHH: QVQLQESGGGLVQPGGSLRLSCAASKNIANFDSMAWYRRSPGKERDLVARLYSDGGTNYEDSVKGRFNISTDIEKNTVYLQMNNLKLEDTARYYCRADLGLFDTSEFPGQGTQVTVSS
notes: also called C115S mutant of Nb-G5
As for B1, the “fold decrease of binding against Nb-G5” value in test [1] came out at 6 fold.

B2: Nb-G5 (VHH)
VHH: B1 VHH with S105C
notes: alpaca nanobody from phage display; The methods describe two cleavable tags for nanobodies (His6-SUMO cut by ULP1, His-bdNEDD8 cut by bdNEDP1); also called anti-nitroTyr Nb; source: E. coli, purified (TALON, tag cleaved, Superdex 200 SEC)
For B2, the figures for the binding result (in test [2]; in test [3]; in the test with calmodulin WT) were “binds”, “binds” and “no binding (tested: 300 nM)”, respectively.
